We go through 14 molecules from patent US20230183322A1 (PEKING UNIVERSITY, published 2023).

The target of experiment [1] is S protein of the novel coronavirus SARS-CoV-2 (SARS-CoV-2, UniProt P0DTC2 14-1273). The experiment in a line: cell-based or functional assay.
Experiment [2] addresses biotin-labeled SARS-COV-2 RBD domain (SARS-CoV-2, UniProt P0DTC2 319-541). Nature of the experiment: SPR, Biacore T200, biotin-RBD on SA chip, antibody as analyte.
Experiment [3] has the same target. The experiment in a line: SPR, Biacore T200, biotin-labeled RBD on SA chip, antibody as analyte, 1:1 model. (Surface plasmon resonance follows binding to a sensor surface in real time, without labels.)
Experiment [4] addresses spike protein (Spike, S protein) of SARS-CoV-2 (SARS-CoV-2, UniProt P0DTC2 14-1273). The experiment in a line: cell-based or functional assay.

B1: ABU-391 (antibody, V domains shown)
VH: EVQLVESGGGLIQPGGSLRLSCAASGFIVSSNYMSWVRQAPGKGLEWVSVIYSGGSTYYADSVKGRFTISRDNSKNTLYLQMNSLRAEDTAVYYCARDYGDYYFDYWGQGTLVTVSS
VL: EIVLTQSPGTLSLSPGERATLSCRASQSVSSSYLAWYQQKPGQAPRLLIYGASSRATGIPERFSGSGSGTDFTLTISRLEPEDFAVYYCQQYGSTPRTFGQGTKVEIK
As to B1, in experiment [1], the “IC50 for neutralizing SARS-CoV-2 pseudovirus (Huh-7 cells, luciferase)” value (“IC50 … (Huh-7 cells, luciferase)” below) is less than 1 µg/mL. Also, the Kd in experiment [2] is less than 20 nM.

B2: antigen-binding unit ABU-367 (antibody, V domains shown)
VH: EVQLVESGGGLIQPGGSLRLSCAASGIIVSSNYMTWVRQAPGKGLEWVSVIYSGGSTFYADSVKGRFTISRDNSKNTLYLQMSSLRAEDTAVYYCARDLGPYGMDVWGQGTTVTVSS
VL: DIQLTQSPSFLSASVGDRVTITCRASQGISSDLAWYQQKPGKAPNLLIYAASTLQSGVPSRFSGSGSGTEFTLTISSLQPEDFATYYCQQLNSDLYTFGQGTKLEIK
As to B2, binding in experiment [3] was put at a Kd of 0.18 nM.

B3: ABU-392 (antibody, V domains shown)
VH: EVQLVESGGGLIQPGGSLRLSCAASEFIVSRNYMSWVRQAPGKGLEWVSVIYSGGSTYYADSVKGRFTISRDNSKNTLNLQMNSLRAEDTAVYYCARDYGDYYFDYWGQGTLVTVSS
VL: EIVLTQSPGTLSLSPGERATLSCRASQGVSSFLAWYQQKPGQAPRLLIHGASSRATGIPDRFSGSGSGTDFTLTITRLEPEDFAVYYCQQYGSSPRTFGQGTKVEIK
In the case of B3, the “IC50 … (Huh-7 cells, luciferase)” value in experiment [1] is less than 0.1 µg/mL. The dissociation constant Kd in experiment [2] is less than 10 nM.

B4: ABU-395 (antibody, V domains shown)
VH: EVQVVESGGGLVQPGGSLRLSCAASGFTVSFNYMSWVRQAPGKGLEWVSVIYPGGSTYYADSVKGRFTISRHNSKNTVYLQMNSLRAEDTAVYYCARDYGDFYFDYWGQGTLVTVSS
VL: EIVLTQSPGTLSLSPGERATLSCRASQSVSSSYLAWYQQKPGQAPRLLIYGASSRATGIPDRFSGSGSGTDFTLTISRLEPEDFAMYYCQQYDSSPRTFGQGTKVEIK
For the molecule B4, in experiment [1], the “IC50 … (Huh-7 cells, luciferase)” value was less than 0.1 µg/mL. In addition, in experiment [2], the Kd is less than 10 nM.

B5: antigen-binding unit ABU-297 (antibody, V domains shown)
VH: EVQLLESGGGVVQPGGSLRLSCAASGFAFTTYAMNWVRQAPGRGLEWVSAISDGGGSAYYADSVKGRFTISRDNSKNTLYLQMNSLRAEDTAVYYCAKTRGRGLYDYVWGSKDYWGQGTLVTVSS
VL: not shown
Consider B5, for which, in experiment [3], the affinity, expressed as Kd, was 0.824 nM.

B6: antigen-binding unit ABU-174 (antibody, V domains shown)
VH: QVQLQQWGAGLLKPSETLSLTCAVYGGSFSDYYWNWIRRPPGKGLEWIGEITHSGSTNYNPSLKSRVTISVDTSKNQFSLKLSSVTAADTAVYYCARGQGYGRVLLWFGEWGQGTLVTVSS
VL: EIVLTQSPATLSLSPGERATLSCRASQSVSTYLAWYQQKPGQAPRLLIYDASNRATGIPARFSGSGSGTDFTLTISSLEPEDFAVYYCQQRSNWITFGQGTRLEIK
B6: in experiment [4], the “IC50, Plaque Reduction Neutralization Test (PRNT), SARS-CoV-2 euvirus” value was found to be 0.5 µg/mL.

B7: ABU-379 (antibody, V domains shown)
VH: EVQLVESGGGLVQPGGSLRLSCAASGFIVSSNYMSWVRQAPGKGLEWVSVIYSGGSTYYADSVKGRFTISRDNSKNTLYLRMNSLRAEDTAVYYCARAPYCSSRSCETWGQGTLVTVSS
VL: DIQMTQSPSSLSASVGDRVTITCQASQDIRNYLNWYQQKPGKAPNLLIYDASNLETGVPSRFSGSGSGTDFTFTINSLQPEDIATYYCQQYDNLPITFGQGTRLEIK
For the molecule B7, in experiment [1], the “IC50 … (Huh-7 cells, luciferase)” value is less than 0.5 µg/mL. The molecule further registered a Kd in experiment [2] of less than 10 nM.

B8: ABU-381 (antibody, V domains shown)
VH: EVQLVESGGGLVQPGGSLRLSCAVSGFIVSRNYMTWVRQAPGKGLEWVSLIYSGGSTFYTNSVKGRFTISRDNSKNTLYLQMDSLRAEDTAVYYCARGPYPRFDYWGQGTLVTVSS
VL: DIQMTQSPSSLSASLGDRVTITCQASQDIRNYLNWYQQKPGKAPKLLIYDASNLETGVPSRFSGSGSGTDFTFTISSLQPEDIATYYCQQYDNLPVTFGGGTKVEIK
In the case of B8, in experiment [1], the “IC50 … (Huh-7 cells, luciferase)” value is less than 0.1 µg/mL. For the same molecule, in experiment [2], the Kd was less than 1 nM.

B9: ABU-386 (antibody, V domains shown)
VH: EVQLVESGGGLVQPGGSLRLSCAASGVTVSSNYMSWVRQAPGKGLEWVSAVYSGGSTYYADSVKGRFTISRHNSKNTLYLQMKSLRPEDTAIYYCARLINHYYDSSGDGGAFDIWGQGTMVTVSS
VL: QSALTQPASVSGSPGQSITISCTGTSSDVGSYNLVSWYQQRPGKAPKLILYEVTKRPSGVSNRFSGSKSGNTASLAISGLQAEDEADYYCCSYAGSSTWVFGGGTKLTVL
Turning to B9, the “IC50 … (Huh-7 cells, luciferase)” value in experiment [1] is less than 0.1 µg/mL. Moreover, in experiment [2], the Kd is less than 10 nM.

B10: ABU-377 (antibody, V domains shown)
VH: QVQLVESGGGLVQPGGSLRLSCAASGLIVSSNYMSWVRQAPGEGLEWVSVIYSGGSTYYADSVKGRFTISRDTSKNTLYLQMNSLRAEDTAVYYCARARIYTYGPDYWGQGTLVTVSS
VL: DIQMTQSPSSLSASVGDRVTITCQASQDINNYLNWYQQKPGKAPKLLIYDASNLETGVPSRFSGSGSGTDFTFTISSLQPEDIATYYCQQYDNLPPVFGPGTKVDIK
On to B10, for which the “IC50 … (Huh-7 cells, luciferase)” value in experiment [1] was less than 0.5 µg/mL. In addition, the Kd in experiment [2] is less than 10 nM.

B11: ABU-375 (antibody, V domains shown)
VH: EVQLVESGGGLVQPGGSLRLSCAASGLTVSSNYMSWVRQAPGKGLEWVSVIYSGGSTFYADSVKGRFTISRDNSKNTLYLQMNSVRAEDTAVYYCARLPYGMDVWGQGTTVTVSS
VL: DIQMTQSPSSLSASVGDRVTITCQASQDVSKYLNWYQQKPGKAPKLLIHDASNLQTGVPSRFSGGGSGTDFTFTISSLQPEDIATYYCQQYDNLPVTFGGGTKVEIK
For the molecule B11, the “IC50 … (Huh-7 cells, luciferase)” value in experiment [1] was less than 0.1 µg/mL. Also, the Kd in experiment [2] was less than 10 nM.

B12: ABU-380 (antibody, V domains shown)
VH: EVQLVESGGGLVQPGGSLRLSCAASGFTVSSNYMSWVRQAPGKGLEWVSLIYPGGSTYYADSVEGRFTISRDNSKNTLYLQMNSLRAEDTAVYYCAREIRVITPVEVWGQGTLVTVSS
VL: DIQMTQSPSSLSASVGDRVTITCQASQDINKYLNWYQLKPGKAPNLLIYDASNLETGVPSRFSGSGSGTDFTFTISSLQPEDIATYYCHQYDNLPRTFGQGTKVEIK
As to B12, the “IC50 … (Huh-7 cells, luciferase)” value in experiment [1] was less than 0.1 µg/mL. The equilibrium dissociation constant (Kd) in experiment [2] was less than 1 nM.

B13: ABU-376 (antibody, V domains shown)
VH: EVQLVESGGGLVQPGGSLRLSCAASGLTVSSNYMSWVRQAPGKGLNWVSVIYSGGSTYYADSVKGRFTISRDNSKNTLYLEMNSLKPEDTAVYYCARLPYGMDVWGQGTTVTVSS
VL: DIQMTQSPSSLSASVGDRVTITCQASQDIRNYLNWYQQKPGKAPKLLIHDASNLETGVPSRFIGSGSGTDFTFTISSLQPEDIATYYCQQYDNLPITFGQGTRLEIK
With B13, in experiment [1], the “IC50 … (Huh-7 cells, luciferase)” value is less than 0.1 µg/mL. For the same molecule, the dissociation constant (Kd) in experiment [2] was less than 10 nM.

B14: antigen-binding unit ABU-190 (antibody, V domains shown)
VH: EVQLVESGGGLIQPGGSLRLSCAASGITVSSNYMSWVRQAPGKGLEWVSVIYSGGSTDYADSVKGRFTISRDKSKNTLYLQMNSLRAEDTAVYYCARDLGEAGGMDVWGQGTTVTVSS
VL: AIQLTQSPSSLSASVGDRVTITCRASQGISSYLAWYQQKPGKAPKLLIYAASTLQSGVPSRFSGSGSGTDFTLTISSLQPEDFATYYCQQLNSYPPAFGGGTKVEIK
As for B14, in experiment [4], the “IC50, Plaque Reduction Neutralization Test (PRNT), SARS-CoV-2 euvirus” value came out at 0.8 µg/mL.

The term Kd denotes the free concentration of one partner at which half of the binding sites on the other are occupied at equilibrium, for simple one-to-one binding. The low end stands for a tighter complex, the high end for a looser complex.
